The test system of series [1] is HeLa Kyoto. The series is described as follows: melting temperature (median over replicates), in situ; higher = more thermally stable.
Series [2] deals with HeLa Kyoto. In words: solubility change mitosis vs G1/S (difference of NP-40 vs SDS log2 ratios) (log2 ratio difference); higher = more soluble in mitosis.
In series [3] the test system is HeLa Kyoto. In words: thermal stability score vs G1/S (z-score of summed log2 fold changes over temperatures); higher = more thermally stable than in G1/S.
The subject of series [4] is HeLa Kyoto. In words: solubility in G1/S (NP-40 vs SDS abundance) (log2 ratio); higher = more soluble. As to conditions: cell cycle stage: G1/S.
Where [5] appears, read: cell cycle stage: early G1 (4.5 h after nocodazole release).
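Throughout, for melting temperature (median over replicates), in situ: HeLa Kyoto cells synchronized by double thymidine or nocodazole block, proteins quantified by TMT10plex mass spectrometry, three independent biological replicates.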
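Throughout, for solubility change mitosis vs G1/S (difference of NP-40 vs SDS log2 ratios): synchronized HeLa Kyoto cells (double thymidine block for G1/S, nocodazole release for mitosis), protein amounts in NP-40 versus SDS lysates quantified by mass spectrometry, three biological replicates.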
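Throughout, for solubility in G1/S (NP-40 vs SDS abundance): HeLa Kyoto cells arrested at G1/S by double thymidine block, proteins quantified by TMT10plex mass spectrometry in mild NP-40 versus SDS extracts, three biological replicates.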
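Throughout, for thermal stability score vs G1/S (z-score of summed log2 fold changes over temperatures): synchronized HeLa Kyoto cells, proteins quantified by TMT10plex mass spectrometry, three biological replicates, mitosis taken 0.5 h after nocodazole release, G1/S directly after double thymidine block.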

For the sequence “MTAELQQDDAAGAADGHGSSCQMLLNQLREITGIQDPSFLHEALKASNGDITQAVSLLTDERVKEPSQDTVATEPSEVEGSAANKEVLAKVIDLTHDNKDDLQAAIALSLLESPKIQADGRDLNRMHEATSAETKRSKRKRCEVWGENPNPNDWRRVDGWPVGLKNVGNTCWFSAVIQSLFQLPEFRRLVLSYSLPQNVLENCRSHTEKRNIMFMQELQYLFALMMGSNRKFVDPSAALDLLKGAFRSSEEQQQDVSEFTHKLLDWLEDAFQLAVNVNSPRNKSENPMVQLFYGTFLTEGVREGKPFCNNETFGQYPLQVNGYRNLDECLEGAMVEGDVELLPSDHSVKYGQERWFTKLPPVLTFELSRFEFNQSLGQPEKIHNKLEFPQIIYMDRYMYRSKELIRNKRECIRKLKEEIKILQQKLERYVKYGSGPARFPLPDMLKYVIEFASTKPASESCPPESDTHMTLPLSSVHCSVSDQTSKESTSTESSSQDVESTFSSPEDSLPKSKPLTSSRSSMEMPSQPAPRTVTDEEINFVKTCLQRWRSEIEQDIQDLKTCIASTTQTIEQMYCDPLLRQVPYRLHAVLVHEGQANAGHYWAYIYNQPRQSWLKYNDISVTESSWEEVERDSYGGLRNVSAYCLMYINDKLPYFNAEAAPTESDQMSEVEALSVELKHYIQEDNWRFEQEVEEWEEEQSCKIPQMESSTNSSSQDYSTSQEPSVASSHGVRCLSSEHAVIVKEQTAQAIANTARAYEKSGVEAALSEVMLSPAMQGVILAIAKARQTFDRDGSEAGLIKAFHEEYSRLYQLAKETPTSHSDPRLQHVLVYFFQNEAPKRVVERTLLEQFADKNLSYDERSISIMKVAQAKLKEIGPDDMNMEEYKKWHEDYSLFRKVSVYLLTGLELYQKGKYQEALSYLVYAYQSNAALLMKGPRRGVKESVIALYRRKCLLELNAKAASLFETNDDHSVTEGINVMNELIIPCIHLIINNDISKDDLDAIEVMRNHWCSYLGQDIAENLQLCLGEFLPRLLDPSAEIIVLKEPPTIRPNSPYDLCSRFAAVMESIQGVSTVTVK [USP28]”, the melting temperature in the series on HeLa Kyoto [1] (cell cycle stage: G1/S) was 48 °C; in the series with HeLa Kyoto [1] (cell cycle stage: mitosis), 49.4 °C. Besides, the “solubility change mitosis (log2)” value in the series on HeLa Kyoto [2] was -0.0214. Further, the thermal stability score was found to be 0.432 in the series with HeLa Kyoto [3] (setting [5]) and 0.537 in the series on HeLa Kyoto [3] (cell cycle stage: mitosis). In the series on HeLa Kyoto [4], the “solubility in G1/S (log2)” value was 0.0518.

On to “MTAPCSQPAQLPGRRQLGLVPFPPPPPRTPLLWLLLLLLAAVAPARGWESGDLELFDLVEEVQLNFYQFLGVQQDASSADIRKAYRKLSLTLHPDKNKDENAETQFRQLVAIYEVLKDDERRQRYDDILINGLPDWRQPVFYYRRVRKMSNAELALLLFIILTVGHYAVVWSIYLEKQLDELLSRKKREKKKKTGSKSVDVSKLGASEKNERLLMKPQWHDLLPCKLGIWFCLTLKALPHLIQDAGQFYAKYKETRLKEKEDALTRTELETLQKQKKVKKPKPEFPVYTPLETTYIQSYDHGTSIEEIEEQMDDWLENRNRTQKKQAPEWTEEDLSQLTRSMVKFPGGTPGRWEKIAHELGRSVTDVTTKAKQLKDSVTCSPGMVRLSELKSTVQNSRPIKTATTLPDDMITQREDAEGVAAEEEQEGDSGEQETGATDARPRRRKPARLLEATAKPEPEEKSRAKRQKDFDIAEQNESSDEESLRKERARSAEEPWTQNQQKLLELALQQYPRGSSDRWDKIARCVPSKSKEDCIARYKLLVELVQKKKQAKS [DNAJC1]”, for which the melting temperature in the series with HeLa Kyoto [1] (cell cycle stage: G1/S) and with HeLa Kyoto [1] (cell cycle stage: mitosis) was 52.8 °C throughout. Besides, in the series on HeLa Kyoto [2], the “solubility change mitosis (log2)” value is -0.0698. The thermal stability score in the series with HeLa Kyoto [3] (setting [5]) and in the series on HeLa Kyoto [3] (cell cycle stage: mitosis) was 1.18 each time. For the same sequence, the “solubility in G1/S (log2)” value in the series on HeLa Kyoto [4] is 0.161.

With “MTARGLALGLLLLLLCPAQVFSQSCVWYGECGIAYGDKRYNCEYSGPPKPLPKDGYDLVQELCPGFFFGNVSLCCDVRQLQTLKDNLQLPLQFLSRCPSCFYNLLNLFCELTCSPRQSQFLNVTATEDYVDPVTNQTKTNVKELQYYVGQSFANAMYNACRDVEAPSSNDKALGLLCGKDADACNATNWIEYMFNKDNGQAPFTITPVFSDFPVHGMEPMNNATKGCDESVDEVTAPCSCQDCSIVCGPKPQPPPPPAPWTILGLDAMYVIMWITYMAFLLVFFGAFFAVWCYRKRYFVSEYTPIDSNIAFSVNASDKGEASCCDPVSAAFEGCLRRLFTRWGSFCVRNPGCVIFFSLVFITACSSGLVFVRVTTNPVDLWSAPSSQARLEKEYFDQHFGPFFRTEQLIIRAPLTDKHIYQPYPSGADVPFGPPLDIQILHQVLDLQIAIENITASYDNETVTLQDICLAPLSPYNTNCTILSVLNYFQNSHSVLDHKKGDDFFVYADYHTHFLYCVRAPASLNDTSLLHDPCLGTFGGPVFPWLVLGGYDDQNYNNATALVITFPVNNYYNDTEKLQRAQAWEKEFINFVKNYKNPNLTISFTAERSIEDELNRESDSDVFTVVISYAIMFLYISLALGHMKSCRRLLVDSKVSLGIAGILIVLSSVACSLGVFSYIGLPLTLIVIEVIPFLVLAVGVDNIFILVQAYQRDERLQGETLDQQLGRVLGEVAPSMFLSSFSETVAFFLGALSVMPAVHTFSLFAGLAVFIDFLLQITCFVSLLGLDIKRQEKNRLDIFCCVRGAEDGTSVQASESCLFRFFKNSYSPLLLKDWMRPIVIAIFVGVLSFSIAVLNKVDIGLDQSLSMPDDSYMVDYFKSISQYLHAGPPVYFVLEEGHDYTSSKGQNMVCGGMGCNNDSLVQQIFNAAQLDNYTRIGFAPSSWIDDYFDWVKPQSSCCRVDNITDQFCNASVVDPACVRCRPLTPEGKQRPQGGDFMRFLPMFLSDNPNPKCGKGGHAAYSSAVNILLGHGTRVGATYFMTYHTVLQTSADFIDALKKARLIASNVTETMGINGSAYRVFPYSVFYVFYEQYLTIIDDTIFNLGVSLGAIFLVTMVLLGCELWSAVIMCATIAMVLVNMFGVMWLWGISLNAVSLVNLVMSCGISVEFCSHITRAFTVSMKGSRVERAEEALAHMGSSVFSGITLTKFGGIVVLAFAKSQIFQIFYFRMYLAMVLLGATHGLIFLPVLLSYIGPSVNKAKSCATEERYKGTERERLLNF [NPC1]”, the melting temperature was determined as 58.3 °C in the series on HeLa Kyoto [1] (cell cycle stage: G1/S) and 56.1 °C in the series on HeLa Kyoto [1] (cell cycle stage: mitosis). Moreover, in the series on HeLa Kyoto [2], the “solubility change mitosis (log2)” value was -0.0644. Also, the thermal stability score with HeLa Kyoto [3] (setting [5]) was -3.38; with HeLa Kyoto [3] (cell cycle stage: mitosis), -3.22. In addition, the “solubility in G1/S (log2)” value with HeLa Kyoto [4] was -0.0136.

On to “MTDLVAVWDVALSDGVHKIEFEHGTTSGKRVVYVDGKEEIRKEWMFKLVGKETFYVGAAKTKATINIDAISGFAYEYTLEINGKSLKKYMEDRSKTTNTWVLHMDGENFRIVLEKDAMDVWCNGKKLETAGEFVDDGTETHFSIGNHDCYIKAVSSGKRKEGIIHTLIVDNREIPEIAS [FAIM]”, for which the melting temperature in the series with HeLa Kyoto [1] (cell cycle stage: G1/S) was determined as 50.8 °C; in the series with HeLa Kyoto [1] (cell cycle stage: mitosis), 49.1 °C. The “solubility change mitosis (log2)” value with HeLa Kyoto [2] was -0.25. For the same sequence, the thermal stability score in the series with HeLa Kyoto [3] (setting [5]) was 0.651; in the series with HeLa Kyoto [3] (cell cycle stage: mitosis), 1.16. Besides, the “solubility in G1/S (log2)” value with HeLa Kyoto [4] is -0.00968.

For the origin of these results see the supplement of paper PMC5998384.
